Source: patent US7888090B2, “Mutants of O6-alkylguanine-DNA alkyltransferase” (Ecole Polytechnique Federale de Lausanne, priority 2004, dated 2011)

Assays:
[1] = Expression yield of soluble GST-AGT fusion protein; set-up: species or system E. coli; conditions: comparator not stated
Experimental: Expression yield is measured in E. coli or in any other of the standard production cells for genetically modified proteins, e.g. yeast, or preferably insect cells, CHO cells or HeLa cells. For quantifying expression yield, AGT fusion proteins may be chosen such that the fusion partner allows easy purification and quantification. For example, expression yield in E. coli is determined by measuring and comparing the yield of soluble and insoluble GST-wild type AGT fusion protein and GST-mutant AGT fusion protein from parallel E. coli expression cultures. Samples of the soluble fractions and insoluble fractions (i.e. the inclusion bodies) after cell lysis are subjected to SDS-PAGE, and the band staining intensities of the corresponding AGT fusion proteins are compared. Soluble protein is quantified after purification of the fusion protein from cell extracts by affinity chromatography (e.g. for GST-AGT fusion proteins by glutathione sepharose) by subjecting the purified fractions to a protein concentration assay (Bradford, Anal Biochem 72:248-54, 1976). The expression yield of similar proteins in the soluble fraction (difference in point mutations) can be used as a measure for protein stability in the unpurified as well as the purified state (Ohage et al., J Mol Biol 291:1119-1128, 1999; Wirtz et al., Protein Sci 8: 2245-50, 1999). Therefore, this is taken as a measure of folding stability and aggregation tendency.
Protein expression from this vector is carried out in E. coli strain BL21. An exponentially growing culture is induced with 0.5 mM IPTG, and the expression is carried out for 3.5 h at 24° C.
Purification: The harvested cells are resuspended in a buffer containing 50 mM phosphate, 0.5 M NaCl, 1 mM DTT, supplemented with 1 mM PMSF and 2 μg/ml aprotinin, and disrupted by lysozyme and sonification. The cell debris are separated by centrifugation at 40000×g. The extract is applied to pre-equilibrated glutathione sepharose (Amersham) which is then washed with 20 bed volumes (50 mM phosphate, 0.5 M NaCl, 1 mM DTT). The mutated GST-AGT fusion protein is eluted with 10 mM reduced glutathione in 50 mM Tris·HCl pH 7.9. The purified protein is dialyzed against 50 mM HEPES pH 7.2; 1 mM DTT; 30% glycerol and then stored at −80° C.
Determination of protein yield: Purity and relative amounts of the GST-AGT fusion proteins are compared by running samples on SDS-PAGE. UV spectra of the pure fractions are recorded using a Perkin Elmer Lambda 10. For protein samples containing no significant amount of DNA, the extinction at 280 nm as a measure of protein content is compared to that of wild type hAGT or PGEG-hAGT that were purified under the same conditions.

[2] = Competition of N^9-substituted and N^9-unsubstituted O^6-benzylguanine substrates; type: biochemical; conditions: comparator not stated
Experimental: Such N^9-substituted O^6-alkylguanine substrates are the natural substrates of the wild type AGT. The ability of wild type AGT or mutant AGT to react with N^9-modified O^6-alkylguanine substrates is measured as the rate of its reaction with such substrates, e.g. with the low molecular weight N^9-cyclopentyl-O^6-benzylguanine in presence of biotinylated N^9-unsubstituted O^6-alkylguanine substrates in competition experiments. Subsequently, samples are subjected to Western blotting and detection with streptavidin derivates to obtain kinetic constants for these substrates. Alternatively, the reactivity towards such substrates is measured as the inhibition of the reaction of AGT with BG-Cy3. The reaction of AGT with BG-Cy3 is followed by an increase of Cy3 fluorescence intensity upon binding to AGT, after preincubation or in direct competition with the N^9-modified O^6-alkylguanine substrate.
Selected AGT mutants are subcloned into pGEX2T, expressed, purified and characterized as described in Example 1. Discrimination between N^9 substituted and N^9 unsubstituted O^6-benzylguanine substrates is evaluated by competition experiments for purified mutated GST-AGT in vitro with N^9-substituted and N′-unsubstituted O^6-benzylguanine. Aliquots of 0.2 μM GST-AGT are incubated with varying concentrations of N^9 substituted substrate (0, 0.5, up to 100 µM) and 0.5 µM biotinylated O^6-benzylguanine (BG-Bt, substance 3a of Juillerat et al., Chem Biol 10:313-317, 2003) in 50 mM HEPES pH 7.3 and 1 mM DTT at room temperature. After 45 min reactions are quenched by the addition of SDS-Laemmli buffer and heat denaturation. Samples are subjected to SDS-PAGE and Western blotting analysis (neutravidin-peroxidase conjugate (PIERCE), Renaissance reagent plus (NEN)). The intensity of the corresponding bands is quantified by a Kodak Image Station 440.

[3] = Periplasmic expression / stability under oxidizing conditions; set-up: species or system E. coli
Experimental: The activities towards AGT substrates are measured after purification without addition of reducing agents such as dithiothreitol or beta-mercaptoethanol. Alternatively, the activities of mutant AGT and wild type human are compared after their export into cellular compartments with oxidising redox potential (e.g. the periplasm of E. coli due to their fusion to appropriate signal sequences. Activity towards AGT substrates under reducing and oxidising conditions is compared by performing the reactions in the presence or absence of reducing agents such as dithiothreitol or beta-mercaptoethanol.
The mutant AGT gene of Example 1 is amplified and cloned as described in Example 1 with the oligonucleotides SEQ ID NO:3, SEQ ID NO:10 and SEQ ID NO:4, SEQ ID NO:9 causing the further mutation Cys62Ala in the gene upon their incorporation by PCR. Protein expression, purification and determination of yield is carried out as described in Example 1. The mutant gene is PCR amplified with the primers SEQ ID NO:11, SEQ ID NO:12 that contain SfiI restriction sites to subclone the gene in fusion to the g3 protein of filamentous phage in the vector pAK100 (Krebber et al., J Immunol Methods 201:35-55, 1997). […] The supernatant is directly subjected to quantification of protein yield via SDS-PAGE and activity assays as described in Example 1.
Stability under oxidizing conditions: The mutant gene is PCR amplified with the primers SEQ ID NO:11 and SEQ ID NO:28 to subclone the gene into pAK100, as described in Example 2. […] To compare the reactivity of […] (Juillerat et al., Chem Biol 10:313-317, 2003) and the mutant, samples are incubated with 1 µM BG-Bt for 50 min, quenched with SDS-Laemmli buffer and analyzed by western blotting using neutravidin peroxidase conjugate (Pierce) or a monoclonal mouse anti-FLAG IgG antibody (M2, Sigma) and a secondary anti-mouse-IgG::HRP conjugate, and Renaissance reagent plus (NEN). […] The anti-FLAG IgG antibody is used to estimate the total amount of soluble AGT protein, whereas neutravidin quantifies the reactive portion of it. […]

[4] = Activity assay with biotinylated O^6-benzylguanine (BG-Bt), Western blotting; type: biochemical; conditions: statement in words
Experimental: Activity towards O^6-benzylguanine substrates is measured as described by Juillerat et al., Chem Biol 10:313-317, 2003.
Activity assay: Purified mutated GST-AGT is incubated in vitro with a biotinylated O^6-benzylguanine (BG-Bt, substance 3a of Juillerat et al., Chem Biol 10:313-317, 2003). In a total reaction volume of 80 […]I, 0.2 µM GST-AGT are incubated with 1 µM substrate in 50 mM HEPES pH 7.2 and 1 mM DTT at room temperature. At several points of time an aliquot is quenched with 1 mM O^6-benzylguanine (Sigma) in SDS-Laemmli buffer and subjected to Western blotting analysis (neutravidin-peroxidase conjugate (PIERCE), Renaissance reagent plus (NEN)). The intensity of the corresponding bands is quantified by a Kodak Image Station 440.

B1: Cys62Ala, Gln115Ser, Gln116His, Lys125Ala, Ala127Thr, Arg128Ala, Cys150Asn, Ser151Ile, Ser152Asn, Asn157Gly, Ser159Glu, truncated after Gly182: particularly preferred hAGT mutant with the listed … (protein, UniProt P16455 1-207, looked up, variant C62A Q115S Q116H K125A A127T R128A C150N S151I S152N N157G S159E del183-207)
Methylated-DNA--protein-cystei …: MDKDCEMKRTTLDSPLGKLELSGCEQGLHEIKLLGKGTSAADAVEVPAPAAVLGGPEPLMQATAWLNAYFHQPEAIEEFPVPALHHPVFQQESFTRQVLWKLLKVVKFGEVISYSHLAALAGNPAATAAVGGAMRGNPVPILIPCHRVVNINGAVGGYEGGLAVKEWLLAHEGHRLGKPGLG
Question: With B1 as the molecule, how does the “expression yield in E. coli” value [1] read?
Answer: increased expression yield

Question: What about the “reduced reactivity towards O^6-alkyl-N^9-deoxyribosylguanine or N^9-cyclopentyl-O^6-benzylguanine” value [2] of the same molecule?
Answer: retain reactivity

Question: What about the sensitivity to oxidation [3] of the same molecule?
Answer: reduced sensitivity to oxidation

Question: What about the “activity towards O^6-benzylguanine substrates” value [4] of the same molecule?
Answer: increased reactivity
